{"source": "patent US20100055108A1", "key": {"human IL-17RC (human)": {"molecular_target": "human IL-17RC (human) (UniProt Q8NAC3)", "sequence (Q8NAC3 21-791)": "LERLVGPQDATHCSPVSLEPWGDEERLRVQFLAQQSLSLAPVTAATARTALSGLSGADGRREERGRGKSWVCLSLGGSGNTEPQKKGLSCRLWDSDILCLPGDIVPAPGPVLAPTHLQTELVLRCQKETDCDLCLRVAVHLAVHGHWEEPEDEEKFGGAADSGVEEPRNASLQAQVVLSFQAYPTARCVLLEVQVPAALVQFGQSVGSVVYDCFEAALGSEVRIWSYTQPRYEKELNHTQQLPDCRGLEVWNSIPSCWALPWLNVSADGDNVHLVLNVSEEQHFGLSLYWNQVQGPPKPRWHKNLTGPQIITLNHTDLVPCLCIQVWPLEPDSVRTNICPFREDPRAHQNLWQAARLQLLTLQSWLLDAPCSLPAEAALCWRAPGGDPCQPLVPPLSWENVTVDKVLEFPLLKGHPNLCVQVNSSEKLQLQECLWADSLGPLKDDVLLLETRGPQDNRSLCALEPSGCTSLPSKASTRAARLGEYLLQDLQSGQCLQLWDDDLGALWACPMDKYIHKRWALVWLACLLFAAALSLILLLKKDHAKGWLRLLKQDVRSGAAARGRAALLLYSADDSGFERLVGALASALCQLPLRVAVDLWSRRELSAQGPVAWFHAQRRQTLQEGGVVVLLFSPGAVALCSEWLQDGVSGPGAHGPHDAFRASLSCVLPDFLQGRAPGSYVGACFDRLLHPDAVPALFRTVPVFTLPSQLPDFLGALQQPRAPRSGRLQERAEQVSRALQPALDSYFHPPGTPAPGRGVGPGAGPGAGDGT", "test": "cell-based or functional assay"}, "human IL-17RA (human)": {"molecular_target": "human IL-17RA (human) (UniProt Q96F46)", "test": "cell-based or functional assay"}}}
{"substance": "recombinant human IL-17A (from UniProt Q16552 20-155) (ligand)", "values": [{"measurement": "inhibition of activation of c-Jun (c-Jun mRNA, quantitative RT-PCR) after IL-17RC iRNA knockdown in AGS cells", "setting": "human IL-17RC (human)", "result": 82, "unit": "%"}, {"measurement": "inhibition of activation of p65 (DNA-binding activity, TransAM NFkB kit) after IL-17RC iRNA knockdown in AGS cells", "setting": "human IL-17RC (human)", "result": 89, "unit": "%"}, {"measurement": "inhibition of IL-17A-induced activation of c-Jun (c-Jun mRNA, quantitative RT-PCR) after IL-17RA iRNA knockdown in AGS cells", "setting": "human IL-17RA (human)", "result": 80, "unit": "%"}, {"measurement": "inhibition of IL-17A-induced activation of p65 (DNA-binding activity, TransAM NFkB kit) after IL-17RA iRNA knockdown in AGS cells", "setting": "human IL-17RA (human)", "result": 97, "unit": "%"}]}
